Test results: the nanobody polyreactivity screen of Harvey et al. (2022)

Assay: yeast display, Sf9 membrane polyspecificity reagent, FACS + sequencing; frameworks hold sequencing errors
Method in brief: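 Sorting gates, low and high (top ~1%), were placed on anti-HA fluorescence to track expression and on streptavidin fluorescence to track reagent binding. A clone's polyreactivity label is taken from the gate it came out of. The reagent was 10% biotinylated, detergent-solubilized Sf9 membrane, applied for 1 hour at 4 °C to galactose-induced yeast display cells.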

Row | Sequence | polyreactivity (PSR sort gate)
1 | QVQLVESGGGLVQAGGSLRLSCAASGSTFRYYAMGWYRQAPGKEWELVAVISTSGNTYYADSVKGRFTISRDNAKNTVYLQMNSLKPEDTAVYYCAARGVGGQISQEYDYWGQGTQVTVSS | low polyreactivity
2 | QVQLVESGGGLVHAGGSLRLSCAASGRTFGWYAMGWYIQAPGKERELVASITHRGGRTYYADSVKGRFTISRDNAKHTVYLQMNSLNPEDTAVYYCAAKTSTGMGYWGQCTQVTVSS | high polyreactivity
3 | QDQLVESGGGLVQAGGSLRLSCAASGRTFIRNAMGWYRPAPGKERELVAAISRSGGRTYYADSVKGRFTISRDNAKNTVYLQMNSLKPEDTAVYYCAAGSYQRYAFDYWGQGTQVTVSS | high polyreactivity
4 | QVQLVESGGGLVQAGGSLRLSCAASGSILYRYTMGWYRLAPGTERELVAAITKRGGRTYYADSVKGRITISRDNAMNTVYLQMNSLKPEDTAVFYCYALLTGGYQDSYPDDYWGQGTHVTVSS | high polyreactivity
5 | QVQLVESGGGLVQAGGSLRLSCAASGSTFGRYAMGWYRQAPGKERELVAAISPRGGSTYYADSVKGRFTISRDNAKNTVYLQMNSLKPEDTAVYYCATGYPIDLGREFDYWGQGIQVTVSS | high polyreactivity
6 | QDQLVESGGGLVQAGGSLRLSCAASGRTFSYNTMGWYRQAPGKERELVAAITRSGGSTYYADSVKGRFTISRDNAKNTVYLQINSLKPEDTAVYYCNARSWYWGQGTQVTVSS | high polyreactivity
7 | HFQLVESGGGLVQAGGSLRLSCAASVFIILINVMGWSRQAPGKERELVAVITGGGTTNYADSVKGRFTISRDNANNTVYLQMNSLKPVDTAGYYCAVDAGAGDNDYWGQGTQVTVSS | low polyreactivity
8 | QVQLVESGGGLVQAGGRLRLSCAASGSTFYSNAMGWYRQAPGKERELVASIRFSGVITTYADSVKGRFTISRDNAKNTVYLQMNSLKPEDTAVYYCDAGYLSTTAYDYWGQGTQVTVSS | low polyreactivity
9 | QVQIVESGGGLVQAGGSLRVSCAASGRTFRLYAMGWYRQAPGKERELVAAITRGGRTNYADSVKGRFTISRDNAKYTVYLHMNSLKPEDTAVYYCAARYVERHTDYYYWGQGSQVTVSS | low polyreactivity
10 | QVQLVESGGGLVQAGGSLRLSSAASGRIFYSNAMGWYRQAPGKERELVAAITRSGGGTYYADSVKGRFTISSDNAKNTVYLLMNSLKPEDTAVYYCAAIYNWWGLGSLYYGSNYWGQGTQVTVSS | high polyreactivity
11 | QEQLQESGGCLVQAGGSLRLSCAASGSIFKVVDMGLYRQSPAKEREFVATIGEGGKTYYADSVKGRFTISRDNEKNTVYLQMNSLKPEDTAVYFYAVVLGTSYRYTYWGEGTQVTVSS | low polyreactivity
12 | QVQLVESGGGLVQAGGSLRISCAASGCTFSFNAMGWYRPAPGKERELVAAITTADSTYYADSVKGRFTISRDNAKNTGYFQMNSLKPEDTAVYYCAADAYWEYDYWGQGTQVTVSS | low polyreactivity
13 | QVQLVESGGGLVQAGGSLRLSCAASGSTFDGNAMGWYRPAPGKERELVAAITWRDGSTSYADSVKGRFTISRDNAKNTVYLQMNSLKPEDTAVYYCNADPGYLDEEYWGQGTQVTVSS | low polyreactivity
14 | QVQLVESGGGLVQAGGSLRLSCAASGFTFGRNAMGWYRQAHGKERELVASIDWSGGSTYYADSVKGRFTISRDNAKNTFYLQMNTLKPEDTAVYYCAVGPNSVGNRSYGFDYWGQGTQVTLSS | low polyreactivity
15 | QVQLVESGGGLVQAGGSLRLSCAASGYTFYYNAMGWYRQATGKERELVAAISWSTSGTYYADSVKGRFTISRDNAKNTVYLQMYSLKPEYTAVYYCAAPSSGTITYDYWGQGTQVTVSS | low polyreactivity
16 | QVQLVESGGGLVQAGGSLRLSCAASGRTFVYNAMGWYRQAPGKERELVAAISAIDGSTYYADSVKGRFTISRDNAKNTVYLQMNSLKPEDTAVYYCAADTQLEASHKDRYEYDYWGQGTQVTVSS | low polyreactivity

Row | Sequence | polyreactivity (PSR sort gate)
17 | QVQLVESGGGLVQAGGSLRLSCAASGNTFRDYAMGWYRQAPGKERELVAAITSSGARTYYADSVKGRFTISRDNAKNTVYLQMNSLKPEDTAVYYCAADWSGYYTYDYWGQGTQVTVSS | low polyreactivity
18 | QVQLVESGGGLVQAGGSLRLSCAASGLISSINAMGWYRQAPGKERELVATITSGGSTYYADSVKGRFTISRDNAKNTVYLQMNSLKPEDTAVYYCAARSSVRAYYSWGHGTQVTVSS | high polyreactivity
19 | QVQLVESGGGLVQAGGSLRLSCAASGLIFKYNVMGWYRQAPGKERELVAAITKRGGSTYYADSVKGRFTISRDNEKNTVYLQMNSLKPEDTAVYYCAARPVNTVRPFDYWGQGTQVTVSS | high polyreactivity
20 | QVQLVESGGGLVQAGGSLRLSCAASGSTFRSYNMGWYRQAPGKERELVADINGTGGSTYYADSVKGRFTISRDNAKNTVYLQMNSLKPEDTAVYYCAADGYFRTVTSGWALRMGYWGQGTQVTVSS | high polyreactivity
21 | QVQLVESGGGLVQAGGSLRLSCAASGFTFDFYAMGWYRQAPGKERELVAAISKNDGTTYYADSVKGRFTISRDNAKNTVYLQMNSLKPEDTAVYYCAAESGYPVYTYVSSGDYWGQGTQVTVSS | low polyreactivity
22 | QVQLVESGGGLVQAGGSLRLICAASGFIFTLYAMGWYRQAPGTERELVAAISKTGGRTYYADSVKGRFTISRDNAKNTVYLQMNSLKPEDTAVYYCAKDVPSTYAAAYDYWGQGTQVTVSS | high polyreactivity
23 | QVQLVESGGGLVQAGGSLRLSCAASGFTFRRYAMGWYRLAPGKERELVAAISQSGGRTYYADSVKGRFTISRDNAKNTVYLQMNSLKPEDTAVYNFAKDAAGGRHYDYWGQGTQVTVSS | high polyreactivity
24 | QVQLVESGGGLVQAGGSLRLSCAASGFTFRRYAMGWYRQAPGKERVLVAAISRGGSSTYYADSVKGRFTISRDNAKNTVYLQMNSLKPEDTAVYYCNARTYVALGFNYWGQGTQVTVSS | high polyreactivity
25 | QVQLVESGGGLVQAGGSLLLSCAASGLTFTDNAMGWSRQAPGKERELVAAISQSGGRTFYADSVKGRFTISRDNAKNTVYLQINSLKPEDPAVYYCNSRRGSVAKYGYLGQGTQVTVSS | high polyreactivity
26 | QVQLVESGGGLVQAGGSLRLSCAASGRTFRYNDRGWYRQAPGKERELVASISRISGSTYYADSVKGRFTISRDNAKNTVYLQMNSLKAEVTAVFYCAATVKLKQYPYFGFGYWGQGTQVTVSS | high polyreactivity
27 | QVQLVESGGGLVQAGGCLRLSCDASGFTFAFYAMGWYRQAPGKEIELVAAISRRGGSTTYADSVKGRFTISRDNAKNTVYLQMHSLKPEDTAVYYCNAVSTRNPGPDSYYWGQGTQVTVSS | high polyreactivity
28 | QVQLVESGGGLVQAGGSLRLICAASGSTFAIYAMGWYRPAPGKERELVAAITGRSGSTYYADSVKGRFTISRDNAKNTVFLQMNSLKPEDTAVYYCAAQGGYRRTPYIHRDYWGQGTQVTVSS | high polyreactivity
29 | QVQLVESGGGLVQAGASLRLCCAASGRILRRYAMGWYRQAPGKEWELVAAITARTGSTYYADSVKGRFTISRDTAKYTVYLQMNSLKPEDTAVYYCNAVNELTGGVIFNYWGQGTQVTVSS | high polyreactivity
30 | QVQLVESGGRLVQAGGSLRLSCAASGSTFHDYAMGWYTPAPGKERELVAAIYNSGGSTYYADSVKGRFSISLDNAQNTVYLQMNRLKPEDSAVYYWAADVSWYWYYEYWGQGTQVTLSS | low polyreactivity
31 | QVQLVESGGGLVQAGGSLRLSCAASGSISYYNAMGWYRQAPGKERELVATITDSGGSTYYADSVKGRFTISRDNAKNTVYLQMNSLKPEDTAVYYWAVDYSEWYSIYEYWGQGTQVTVSS | low polyreactivity
32 | QGQLVESGGGLVQAGGSLRLSCAASGNTFNVYAMGWYRQAPGKARELVAAITLSGGSTYYADSVKGRFTISRDNSKNTVYLQMNSLKPEDTAFYYCNAEEDGTDYDYWGQGTQVTVSS | low polyreactivity
